# Assay results published in patent US20190162720A1.
# What was measured:
# [1] = target: anti-adiponectin antibody (R&D Systems, Inc., Human Adiponectin/Acrp30 Antibody, Monoclonal Mouse IgG2B, MAB10651); assay: SPR Biacore T200; anti-adiponectin antibody 100 µg/mL fed over protein A/G held on the first antibody (Example 3)
# [2] = target: anti-CRP antibody (R&D Systems, Inc., Human C-Reactive protein Antibody, Monoclonal Mouse IgG2B, MAB17071-500); assay: SPR Biacore T200; anti-CRP antibody 100 µg/mL fed over protein A/G held on anti-mPEG antibody (Example 9)
# [3] = target: anti-CRP antibody (R&D Systems, Inc., Human C-Reactive protein Antibody, Monoclonal Mouse IgG2B, MAB17071-500); assay: SPR Biacore T200; anti-CRP antibody 100 µg/mL fed over protein A/G held on anti-BSA antibody (Example 16)
# [4] = target: anti-streptavidin antibody (R&D Systems, Inc., Streptavidin Antibody, Recombinant Monoclonal Rabbit IgG Clone #1220C, MAB9020); assay: SPR Biacore T200; protein A/G (six domains) 100 µg/mL fed over anti-streptavidin antibody on the chip (Example 14)
# [5] = target: anti-biotin monoclonal antibody (Abcam plc., ab36406, Mouse monoclonal); assay: SPR Biacore T200; protein A/G (six domains) 25 µg/mL fed over anti-biotin monoclonal antibody on the chip (Example 7)
# [6] = target: anti-adiponectin antibody (R&D Systems, Inc., Human Adiponectin/Acrp30 Antibody, Monoclonal Mouse IgG2B, MAB10651); assay: SPR Biacore T200; anti-adiponectin antibody 100 µg/mL fed over protein A/G held on the first antibody (Example 2)
# [7] = target: anti-biotin antibody (Abcam plc., ab53494, Rabbit polyclonal); assay: SPR Biacore T200; protein A/G 100 µg/mL fed over anti-biotin antibody on the chip (Example 2)
# [8] = target: anti-CRP antibody (R&D Systems, Inc., Human C-Reactive protein Antibody, Monoclonal Mouse IgG2B, MAB17071-500); assay: SPR Biacore T200; anti-CRP antibody 100 µg/mL fed over protein A/G held on anti-streptavidin antibody (Example 14)
# [9] = target: anti-adiponectin antibody (R&D Systems, Inc., Human Adiponectin/Acrp30 Antibody, Monoclonal Mouse IgG2B, MAB10651); assay: SPR Biacore T200; anti-adiponectin antibody 100 µg/mL fed over protein A/G held on the first antibody (Example 4)
# [10] = target: anti-BSA antibody (Bioss Inc., bs-0292R, polyclonal antibody); assay: SPR Biacore T200; protein A/G (six domains) 100 µg/mL fed over anti-BSA antibody on the chip (Example 17)
# [11] = target: anti-CRP antibody (R&D Systems, Inc., Human C-Reactive protein Antibody, Monoclonal Mouse IgG2B, MAB17071-500); assay: SPR Biacore T200; anti-CRP antibody 100 µg/mL fed over protein A/G held on anti-BSA antibody (Example 15)
# [12] = target: anti-mPEG monoclonal antibody (Abcam plc., ab51257, Mouse monoclonal, Anti-Polyethylene glycol antibody [PEG-B-47]); assay: SPR Biacore T200; protein A/G (six domains) 101 µg/mL fed over anti-mPEG antibody on the mPEG chip (Example 9)
# [13] = target: anti-BSA antibody (Bioss Inc., bs-0292R, polyclonal antibody); assay: SPR Biacore T200; protein A/G (six domains) 100 µg/mL fed over anti-BSA antibody on the chip (Example 15)
# [14] = target: anti-CRP antibody (R&D Systems, Inc., Human C-Reactive protein Antibody, Monoclonal Mouse IgG2B, MAB17071-500); assay: SPR Biacore T200; anti-CRP antibody 100 µg/mL fed over protein A/G held on anti-biotin antibody (Example 13)
# [15] = target: anti-CRP antibody (R&D Systems, Inc., Human C-Reactive protein Antibody, Monoclonal Mouse IgG2B, MAB17071-500); assay: SPR Biacore T200; anti-CRP antibody 100 µg/mL fed over protein A/G held on anti-mPEG antibody (Example 10)
# [16] = target: anti-CRP antibody (R&D Systems, Inc., Human C-Reactive protein Antibody, Monoclonal Mouse IgG2B, MAB17071-500); assay: SPR Biacore T200; anti-CRP antibody 100 µg/mL fed over protein A/G held on the first antibody (Example 7)
# [17] = target: anti-biotin antibody (Abcam plc., ab53494, Rabbit polyclonal); assay: SPR Biacore T200; protein A/G 100 µg/mL fed over anti-biotin antibody on the chip (Example 5)
# [18] = target: anti-CRP antibody (R&D Systems, Inc., Human C-Reactive protein Antibody, Monoclonal Mouse IgG2B, MAB17071-500); assay: SPR Biacore T200; anti-CRP antibody 100 µg/mL fed over protein A/G held on anti-BSA antibody (Example 17)
# [19] = target: anti-mPEG monoclonal antibody (Abcam plc., ab51257, Mouse monoclonal, Anti-Polyethylene glycol antibody [PEG-B-47]); assay: SPR Biacore T200; protein A/G (six domains) 1,000 µg/mL fed over anti-mPEG antibody on the mPEG chip (Example 10)
# [20] = target: anti-biotin antibody (Abcam plc., ab53494, Rabbit polyclonal); assay: SPR Biacore T200; protein A/G 100 µg/mL fed over anti-biotin antibody on the chip (Example 3)
# [21] = target: anti-biotin antibody (Abcam plc., ab53494, Rabbit polyclonal); assay: SPR Biacore T200; protein A/G 100 µg/mL fed over anti-biotin antibody on the chip (Example 1)
# [22] = target: anti-biotin monoclonal antibody (Abcam plc., ab36406, Mouse monoclonal); assay: SPR Biacore T200; protein A/G (six domains) 100 µg/mL fed over anti-biotin monoclonal antibody on the biotin-PEG chip (Example 13)
# [23] = target: anti-biotin antibody (Abcam plc., ab53494, Rabbit polyclonal); assay: SPR Biacore T200; protein A/G 100 µg/mL fed over anti-biotin antibody on the chip (Example 4)
# [24] = target: anti-biotin monoclonal antibody (Abcam plc., ab36406, Mouse monoclonal); assay: SPR Biacore T200; protein A/G (six domains) 100 µg/mL fed over anti-biotin monoclonal antibody on the biotin-PEG chip (Example 12)
# [25] = target: anti-adiponectin antibody (R&D Systems, Inc., Human Adiponectin/Acrp30 Antibody, Monoclonal Mouse IgG2B, MAB10651); assay: SPR Biacore T200; anti-adiponectin antibody 100 µg/mL fed over protein A/G held on the first antibody (Example 5)
# [26] = target: anti-BSA antibody (Bioss Inc., bs-0292R, polyclonal antibody); assay: SPR Biacore T200; protein A/G (six domains) 100 µg/mL fed over anti-BSA antibody on the chip (Example 16)
# [27] = target: anti-adiponectin antibody (R&D Systems, Inc., Human Adiponectin/Acrp30 Antibody, Monoclonal Mouse IgG2B, MAB10651); assay: SPR Biacore T200; anti-adiponectin antibody 100 µg/mL fed over protein A/G held on the first antibody (Example 1)
# [28] = target: anti-CRP antibody (R&D Systems, Inc., Human C-Reactive protein Antibody, Monoclonal Mouse IgG2B, MAB17071-500); assay: SPR Biacore T200; anti-CRP antibody 100 µg/mL fed over protein A/G held on anti-biotin antibody (Example 12)
substance,measurement,setting,value
"protein A/G (Pierce 21186, Recombinant Protein A/G from E. coli, six domains)",Amount of second antibody immobilized,[1],1610 RU
same,Amount of second antibody immobilized,[2],2840 RU
same,Amount of second antibody immobilized,[3],2820 RU
same,amount of the protein A/G immobilized,[4],716 RU
same,amount of the protein A/G immobilized,[5],622 RU
same,Amount of second antibody immobilized,[6],935 RU
same,amount of the protein A/G immobilized,[7],718 RU
same,Amount of second antibody immobilized,[8],3400 RU
same,Amount of second antibody immobilized,[9],1620 RU
same,amount of the protein A/G immobilized,[10],507 RU
same,Amount of second antibody immobilized,[11],2800 RU
same,amount of the protein A/G immobilized,[12],637 RU
same,amount of the protein A/G immobilized,[13],602 RU
same,Amount of second antibody immobilized,[14],2890 RU
same,Amount of second antibody immobilized,[15],3450 RU
same,Amount of second antibody immobilized,[16],2300 RU
same,amount of the protein A/G immobilized,[17],890 RU
same,Amount of second antibody immobilized,[18],2680 RU
same,amount of the protein A/G immobilized,[19],685 RU
same,amount of the protein A/G immobilized,[20],890 RU
same,amount of the protein A/G immobilized,[21],558 RU
same,amount of the protein A/G immobilized,[22],828 RU
same,amount of the protein A/G immobilized,[23],884 RU
same,amount of the protein A/G immobilized,[24],603 RU
same,Amount of second antibody immobilized,[25],1560 RU
same,amount of protein A/G immobilized,[26],497 RU
same,Amount of second antibody immobilized,[27],1100 RU
same,Amount of second antibody immobilized,[28],2330 RU
